Measured values published in PMC9869178.

Molecular target: recombinant RIIα subunit of PKA, fluorescein 5-maleimide-labelled (UniProt P13861)
Assay: other fluorescence titration

recombinant RIIα subunit of PKA, fluorescein 5-maleimide-labelled, sequence (P13861 2-404): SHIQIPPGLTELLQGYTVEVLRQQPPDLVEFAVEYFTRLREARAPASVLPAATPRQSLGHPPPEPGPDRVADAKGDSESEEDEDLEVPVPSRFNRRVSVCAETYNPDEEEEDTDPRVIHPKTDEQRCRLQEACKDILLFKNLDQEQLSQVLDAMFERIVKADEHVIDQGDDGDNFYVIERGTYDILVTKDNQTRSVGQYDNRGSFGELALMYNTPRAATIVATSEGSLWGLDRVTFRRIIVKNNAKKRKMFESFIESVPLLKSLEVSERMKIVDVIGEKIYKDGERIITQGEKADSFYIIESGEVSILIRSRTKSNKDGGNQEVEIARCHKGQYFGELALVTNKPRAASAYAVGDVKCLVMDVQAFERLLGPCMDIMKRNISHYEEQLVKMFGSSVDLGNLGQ

- Kd: 7.5 µM
Substance: PI3Kγ mimetic peptide (PI3Kγ MP) (from UniProt P48736 126-150)
